In patent publication US20190276540A1:

Experiments:
[1] = biological target: NKG2D ligands (NKG2DL) on tumor cell lines; experiment: cell-based or functional assay
[2] = biological target: ULBP2-Fc (UniProt Q9BZM5); experiment: cell-based or functional assay
Sequence of UniProt Q9BZM5 (Q9BZM5 26-217 limits assumed): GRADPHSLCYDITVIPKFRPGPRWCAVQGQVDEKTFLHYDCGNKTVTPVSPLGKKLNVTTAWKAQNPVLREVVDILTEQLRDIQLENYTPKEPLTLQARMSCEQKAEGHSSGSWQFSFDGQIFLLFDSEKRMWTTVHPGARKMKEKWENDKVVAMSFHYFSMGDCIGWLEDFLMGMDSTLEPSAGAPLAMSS

| tumor cell lysis, luciferase reporter assay, 24 h co-culture, E:T 1-to-1 [1] [%] | proliferation of CFSE-labelled TFP T cells on plate-bound antigen, three-day culture, flow cytometry [2] [ng/mL] | tumor cell lysis, luciferase reporter assay, 24 h co-culture, E:T 5-to-1 [1] [%] | Substance |
| --- | --- | --- | --- |
| 30 to 50 | 60 | – | dimeric NKG2D-CD3ε TFP (receptor) |
| – | 250 | 30 to 50 | monomeric NKG2D-CD3ε TFP (receptor) |
